Data from US20150093758.

Experiments:
[1] = test system: PSA anchor ligand biotin-PEG5-cyclic(CVFAHNYDYLVC)
[2] = test system: PSA capture agent biligand biotin-PEG5-cyclic(CVFAHNYDYLVC)-Tz5-Gllffk

human prostate specific antigen (free PSA, Scripps Laboratories #P0725)
enzyme activity of PSA against the chromogenic substrate Suc-Arg-Pro-Tyr-pNA (absorbance at 405 nm) [1]: 3 fold | enzyme activity of PSA against the chromogenic substrate Suc-Arg-Pro-Tyr-pNA (absorbance at 405 nm) [2]: 3 fold
